Test results published in paper PMC3907296, “How a Retrotransposon Exploits the Plant's Heat Stress Response for Its Activation”.

Target: HSFA2 (Arabidopsis thaliana, UniProt O80982 1-345)
Experiment: competition EMSA; unlabeled HRE fragment, 200-fold excess, competes with labeled LTR; 10 mM Tris pH 7.5, 1 mM EDTA, 0.1 M KCl, 0.1 mM DTT, 5% glycerol, 0.01 mg/ml BSA; RT 30 min; 5% native PAGE, 0.5x TBE
Conditions: protein: recombinant; tags: C-terminal 6xHis (pET-24b, NdeI/XhoI); chain copies: 3; blunt

Chain of HSFA2 (O80982 whole entry, the tested form may be a part): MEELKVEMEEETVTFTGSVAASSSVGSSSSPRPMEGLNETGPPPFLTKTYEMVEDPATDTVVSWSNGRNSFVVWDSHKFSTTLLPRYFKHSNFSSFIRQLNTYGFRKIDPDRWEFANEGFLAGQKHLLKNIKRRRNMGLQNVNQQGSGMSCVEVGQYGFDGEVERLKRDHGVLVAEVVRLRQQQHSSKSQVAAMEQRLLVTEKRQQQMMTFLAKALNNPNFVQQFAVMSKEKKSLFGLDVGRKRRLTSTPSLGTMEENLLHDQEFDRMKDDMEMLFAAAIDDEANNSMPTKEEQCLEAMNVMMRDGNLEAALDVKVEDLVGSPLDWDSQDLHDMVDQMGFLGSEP

B1: ONSEN LTR complete HRE, 51 bp (dsDNA)
DNA 1: CCACCTCCTTAAAAGATTCTAGAAATTTTCTAGAATCATCTTCCACCTCCT
DNA 2: AGGAGGTGGAAGATGATTCTAGAAAATTTCTAGAATCTTTTAAGGAGGTGG
binding result: binds
